Results as given in US20260098102A1 (NATIONAL UNIVERSITY CORPORATION KOBE UNIVERSITY, published 2026).

Legend:
[1] = target: T1, human SIRPA_V1 protein (human, UniProt P78324 31-504); experiment: blocking cell-based ELISA: peroxidase-labeled CD47-Fc (10,000 ng/mL) on 293α cells expressing SIRPA_V1; y axis = CD47-Fc signal in % of no antibody [i]
T1 construct: Expressed on 293α cells from pcDNA3.2 V5-DEST or pFLAG V5-DEST (FLAG-tagged) vectors; also called human SIRPA Variant 1; hSIRPA V1
Method: After the culture supernatant of the human SIRPA and monkey SIRPA expression vector-introduced 293α cells prepared in Examples 5)-1 and 5)-2, respectively, was removed, 50 μL per well of cD13 (IgG2 and IgG4pf), cF44 (four different constant regions IgG1, IgG2, IgG4p, and IgG4pf), and cF63 (IgG2 and IgG4pf) diluted with 5% FBS-containing PBS to final concentrations of 0 to 10,000 ng/mL were added to each of pcDNA3.2 V5-DEST-SIRPA_V1, pcDNA3.2 V5-DEST-monkey SIRPA, and pcDNA3.2 V5-DEST-introduced 293α cells, immediately followed by addition of 50 μL per well of peroxidase-labeled CD47-Fc prepared in 5% FBS-containing PBS at a final concentration of 10,000 ng/ml, and the mixture was allowed to stand at 4° C. for one hour. Thereafter, the SIRPA-CD47 binding inhibitory activity was evaluated in the same manner as in 1)-6-3.

[2] = target: T2, SIRPA_V2_IgV (human); experiment: SPR Biacore T200, antibody captured on anti-human IgG (Fc), SIRPA_V2_IgV as analyte (0.25 to 16 nM), 1:1 model
T2 construct: Secreted recombinant protein; The crystal model held residues 33 to 143 of human SIRPA Variant 2
Method: The dissociation constants were measured by a capture method comprising capturing each antibody as a ligand to an Anti-Human IgG (Fc) antibody immobilized using Human Antibody Capture Kit (GE Healthcare Bioscience Corp.) and measuring an antigen as an analyte, using Biacore T200 (GE Healthcare Bioscience Corp.). HBS-EP+ (GE Healthcare Bioscience Corp.) was used as a running buffer, and CM5 (GE Healthcare Bioscience Corp.) was used as a sensor chip. Onto the chip, 2 μg/mL of various antibodies were added at 10 μL/min for 30 seconds, then a serially diluted solution (0.25 to 16 nM) of the human SIRPA protein as an antigen was added at a flow rate of 30 μL/min for 120 seconds, and subsequently the dissociation phase for 600 seconds was monitored. As a regenerant, 3 M magnesium chloride (GE Healthcare Bioscience Corp.) was added at a flow rate of 20 μL/min for 30 seconds. For data analysis, a binding rate constant (ka), a dissociation rate constant (kd), and a dissociation constant (KD; KD=kd/ka) were calculated using a 1:1 binding model.

[3] = target: T3, human SIRPA_V2 protein (human, UniProt P78324 31-504); experiment: blocking cell-based ELISA: peroxidase-labeled CD47-Fc (1 µg/mL) on 293α cells expressing SIRPA_V2
T3 construct: Expressed on 293α cells from pcDNA3.2 V5-DEST or pFLAG V5-DEST (FLAG-tagged) vectors; also called human SIRPA Variant 2; ECD variant (full-length, amino acids 1 to 504)
Method: After the culture supernatant of the human SIRPA_V1 or V2 expression vector-introduced 293 cells prepared in Example 9)-1 was removed, 50 μL per well of various anti-SIRPA antibodies or various control Human IgG diluted with 5% FBS-containing PBS to a final concentration of 0 to 10,000 ng/ml was added to each of pcDNA3.2 V5-DEST-SIRPA_V1 or V2-introduced 293α cells, immediately followed by addition of 50 µL per well of peroxidase-labeled CD47-Fc prepared with 5% FBS-containing PBS at 1 μg/mL, and the mixture was allowed to stand at 4° C. for one hour. Thereafter, the SIRPA-CD47 binding inhibitory activity was evaluated in the same manner as in 1)-6-3.

[4] = target: T4, human SIRPG (human, UniProt Q9P1W8 29-387); experiment: flow cytometry on CHO-K1 cells expressing FLAG-tagged human SIRPG; PE anti-human IgG; MFI standardized to secondary antibody alone
T4 construct: whole, on cells; FLAG-tagged (pFLAG V5-DEST), on CHO-K1 cells; also called SIRPγ; signal regulatory protein γ
Method: SIRPβ1 (signal regulatory protein β1: the amino acid sequence thereof is published as RefSeq accession number NP_006056) and SIRPγ (signal regulatory protein γ: the amino acid sequence thereof is published as RefSeq accession number NP_061026) are molecules belonging to the SIRPA family. In the present invention, “SIRPα” may be referred to as “SIRPA,” “SIRPβ1” may be referred to as […] and “SIRPγ” may be referred to as “SIRPG.” CHO-K1 cells were prepared in a 10% FBS-containing Ham's F-12K medium at 3.3×10⁵ cells/mL and cultured overnight at 37° C. under a 5% CO₂ condition. pFLAG V5-DEST-human SIRPβ, pFLAG V5-DEST-human SIRPG, or pFLAG V5-DEST was introduced into the cells using Lipofectamine LTX (Invitrogen), and cells were cultured in a 10% FBS-containing Ham's F-12K medium at 37° C. under a 5% CO₂ condition for 24 hours. The obtained introduced cells were collected and seeded on a 96-well plate. After the culture supernatant was removed, 100 μL per well of various anti-human SIRPA antibodies or various control human IgG was added to each of various gene introduced cells at a final concentration of 0 to 10,000 ng/mL, and the mixture was allowed to stand at 4° C. for 25 minutes. After the mixture was centrifuged, the supernatant was removed, and cells were washed twice with 5% FBS-containing PBS. […]
After the mixture was centrifuged, and the supernatant was removed, cells were suspended in 100 μL per well of 1× BD Stabilizing Fixative (Becton Dickinson), and the cell count was measured by flow cytometry (FACS Canto II: Becton Dickinson). […] Cells were characterized by detecting forward scattered (FSC) light and side-scattered (SSC) light, and then the mean fluorescence intensity of PE was calculated. Binding of various antibodies to the family molecules was calculated by standardizing the fluorescence intensity using the mean fluorescence intensity of a sample in which the secondary antibody alone was allowed to react.

T2 sequence (chain, as listed by the source limits assumed): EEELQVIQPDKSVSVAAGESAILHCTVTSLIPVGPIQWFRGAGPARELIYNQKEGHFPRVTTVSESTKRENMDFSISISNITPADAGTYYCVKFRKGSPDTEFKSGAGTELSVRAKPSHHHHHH
T1 sequence (P78324 31-504 limits assumed): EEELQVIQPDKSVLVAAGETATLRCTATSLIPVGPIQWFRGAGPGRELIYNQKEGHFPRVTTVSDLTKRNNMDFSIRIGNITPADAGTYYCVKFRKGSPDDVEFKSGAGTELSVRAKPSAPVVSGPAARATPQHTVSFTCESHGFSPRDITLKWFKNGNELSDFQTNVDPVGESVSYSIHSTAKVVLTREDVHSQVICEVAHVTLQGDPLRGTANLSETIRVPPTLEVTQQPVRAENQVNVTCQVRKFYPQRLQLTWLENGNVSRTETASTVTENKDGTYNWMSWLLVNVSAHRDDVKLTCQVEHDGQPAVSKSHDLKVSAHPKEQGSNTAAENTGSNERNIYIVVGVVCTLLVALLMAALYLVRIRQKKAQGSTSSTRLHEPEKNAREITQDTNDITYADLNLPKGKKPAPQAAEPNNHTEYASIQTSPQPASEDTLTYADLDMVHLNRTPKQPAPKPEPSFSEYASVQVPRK
T3 sequence (P78324 other isoform, or with tags, fused parts or gaps limits assumed): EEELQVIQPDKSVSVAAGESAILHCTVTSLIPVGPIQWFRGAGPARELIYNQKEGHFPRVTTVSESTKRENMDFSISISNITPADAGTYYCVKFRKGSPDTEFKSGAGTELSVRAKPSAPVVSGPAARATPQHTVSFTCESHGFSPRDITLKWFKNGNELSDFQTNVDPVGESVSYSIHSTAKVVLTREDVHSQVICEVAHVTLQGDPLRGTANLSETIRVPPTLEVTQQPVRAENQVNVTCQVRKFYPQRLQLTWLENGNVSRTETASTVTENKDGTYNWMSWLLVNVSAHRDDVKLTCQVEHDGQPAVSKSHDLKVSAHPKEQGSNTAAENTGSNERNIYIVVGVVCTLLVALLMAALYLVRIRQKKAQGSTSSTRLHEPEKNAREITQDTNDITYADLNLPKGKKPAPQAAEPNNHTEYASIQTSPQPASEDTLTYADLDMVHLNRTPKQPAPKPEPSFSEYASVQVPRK
T4 sequence (Q9P1W8 29-387): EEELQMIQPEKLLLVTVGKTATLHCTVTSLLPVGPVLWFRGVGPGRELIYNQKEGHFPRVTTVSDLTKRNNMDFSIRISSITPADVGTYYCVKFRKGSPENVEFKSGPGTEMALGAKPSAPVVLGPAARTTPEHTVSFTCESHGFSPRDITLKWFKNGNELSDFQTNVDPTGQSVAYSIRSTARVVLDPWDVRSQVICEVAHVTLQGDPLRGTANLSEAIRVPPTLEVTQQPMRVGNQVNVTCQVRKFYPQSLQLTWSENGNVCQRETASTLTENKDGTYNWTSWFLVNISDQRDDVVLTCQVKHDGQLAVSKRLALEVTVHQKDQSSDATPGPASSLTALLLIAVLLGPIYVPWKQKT

Binder	IC50 (read off the curve) [1]	Kd [2]	IC50 [3]	EC50 (read off the curve) [4]
human chimeric anti-SIRPA antibody cD13 (antibody, human IgG4 S228P, kappa, F234A L235A, V domains shown, Human IgG4proFALA heavy chain, human kappa light chain; also called cD13 (IgG4pf); human chimeric antibody D13) VH: EVQLVESGGGLVQPGRSLKLSCLASGFTFSDYGMIWVRQAPGKGLEWVASISSSSSYIYYADTVKGRFTISRENAKNTLFLHMTSLRSEDTALYYCARRYYGFNYPFDYWGQGVMVTVSS VL: DTVLTQSPALAVSLGQRVTISCGASKSVRTYMHWYQQKSGQQPKLLIYSASNLEAGVPSRFSGSGSGTDFTLTIDPVEADDIANYYCQQSNEPPYTFGAGTKLELKR	~0.1 µg/mL			
humanized anti-SIRPA antibody hD13_H1L3 (antibody, human IgG4 S228P, kappa, F234A L235A, V domains shown, hH1 heavy chain (IgG4proFALA) and hL3 kappa light chain; also called hD13_HIL3; HIL3 antibody) VH: QVQLVESGGGVVQPGRSLRLSCAASGFTFSDYGMIWVRQAPGKGLEWVASISSSSSYIYYADSVKGRFTISRDNSKNRLYLQMNSLRAEDTAVYYCARRYYGFNYPFDYWGQGTMVTVSS VL: DTQLTQSPSSLSASVGQRVTITCGASKSVRTYMHWYQQKPGKQPKLLIYSASNLEAGVPSRFSGSGSGTDFTLTISSLQPEDFATYYCQQSNEPPYTFGQGTKLEIKR		1.17 nM	1.3 µg/mL	~0.03 µg/mL
